{"source": "patent US20180037651A1", "about": "(Janssen / Centocor, published 2018)", "key": {"cyno GPRC5D [1]": {"biological_target": "T1, cyno GPRC5D (cyno, UniProt Q9NZD1 1-343 (human entry))", "T1 chain": "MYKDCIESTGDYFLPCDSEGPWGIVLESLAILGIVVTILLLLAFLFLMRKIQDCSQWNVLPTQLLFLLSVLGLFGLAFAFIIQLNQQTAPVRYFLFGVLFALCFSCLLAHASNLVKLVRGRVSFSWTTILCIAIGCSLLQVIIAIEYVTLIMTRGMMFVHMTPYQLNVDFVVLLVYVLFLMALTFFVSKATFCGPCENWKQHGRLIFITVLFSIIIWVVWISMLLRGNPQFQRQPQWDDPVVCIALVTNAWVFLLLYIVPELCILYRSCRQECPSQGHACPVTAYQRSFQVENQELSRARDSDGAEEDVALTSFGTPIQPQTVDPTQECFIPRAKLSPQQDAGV", "assay": "cell-based or functional assay"}, "human GPRC5D [2]": {"biological_target": "T2, human GPRC5D (human, UniProt Q9NZD1 1-345)", "T2 construct": "on transfected HEK293/RBL cells or endogenous on myeloma cells (H929, MM1R, OPM2, LP1, JIM3, patient plasma cells); also called G protein-coupled receptor class C group 5 member D; hGPRC5D", "assay": "FACS, MM1R, H929 and human GPRC5D HEK293 cells"}, "human GPRC5D [3]": {"biological_target": "T2, human GPRC5D", "assay": "FACS titration, human GPRC5D HEK293 cells"}, "human GPRC5D [4]": {"biological_target": "T2, human GPRC5D", "assay": "FACS, GPRC5D+ MM1.R cells", "procedure": "The binding affinities of the GPRC5D antibodies on GPRC5D⁺ human MM cell line (MM1.R, purchased from ATCC (American Type Culture Collection)) were measured using FACS.\nBinding is expressed as normalized geometrical mean fluorescence intensity as determined by FACS. Graphing and fitting of data were done in GraphPad Prism 6 using nonlinear regression with variable slope (four parameters) and least square fit method."}, "cyno GPRC5D [5]": {"biological_target": "T1, cyno GPRC5D", "assay": "cell-based or functional assay"}, "human GPRC5D [6]": {"biological_target": "T2, human GPRC5D", "assay": "cell-based or functional assay"}, "human GPRC5D [7]": {"biological_target": "T2, human GPRC5D", "assay": "FACS binding to plasma cells in MM patient MM305BM bone marrow MNCs"}, "human GPRC5D [8]": {"biological_target": "T2, human GPRC5D", "assay": "FACS binding to plasma cells in MM patient MM303BM bone marrow MNCs"}, "murine GPRC5D": {"biological_target": "T3, murine GPRC5D (murine, UniProt Q9JIL6 1-344)", "T3 construct": "also called mouse GPRC5D", "T3 sequence": "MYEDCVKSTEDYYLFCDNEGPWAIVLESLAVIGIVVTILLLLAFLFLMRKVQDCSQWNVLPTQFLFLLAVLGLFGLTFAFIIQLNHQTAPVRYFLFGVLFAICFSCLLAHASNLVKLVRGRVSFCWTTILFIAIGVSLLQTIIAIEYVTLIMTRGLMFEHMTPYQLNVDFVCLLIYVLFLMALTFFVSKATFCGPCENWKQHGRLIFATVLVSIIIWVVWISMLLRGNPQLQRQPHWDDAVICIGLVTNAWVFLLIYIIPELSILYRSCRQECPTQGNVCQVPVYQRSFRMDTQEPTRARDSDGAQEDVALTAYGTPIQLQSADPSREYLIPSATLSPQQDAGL", "assay": "FACS, murine GPRC5D"}}, "data": [{"binder": "GCDB45 (bispecific antibody, IgG4, V domains shown, IgG4-PAA bispecific; also called GC5B332 x CD3B219) VH 1: EVQLVQSGAEVKKPGESLKISCKGSGYSFTSYWIGWVRQMPGKGLEWMGIIYPGDSDTRYSPSFQGQVTISADKSISTAYLQWSSLKASDTAMYYCARIGFYGRSFRIFDYWGQGTLVTVSS VL 1: EIVLTQSPATLSLSPGERATLSCRASQSVSSYLAWYQQKPGQAPRLLIYDASNRATGIPARFSGSGSGTDFTLTISSLEPEDFAVYYCQQRSNWPLTFGQGTKVEIK VH 2: EVQLVESGGGLVQPGGSLRLSCAASGFTFNTYAMNWVRQAPGKGLEWVARIRSKYNNYATYYAASVKGRFTISRDDSKNSLYLQMNSLKTEDTAVYYCARHGNFGNSYVSWFAYWGQGTLVTVSS VL 2: QTVVTQEPSLTVSPGGTVTLTCRSSTGAVTTSNYANWVQQKPGQAPRGLIGGTNKRAPGTPARFSGSLLGGKAALTLSGVQPEDEAEYYCALWYSNLWVFGGGTKLTVL", "values": [{"measurement": "T cell mediated target cell killing, Cyno GPRC5D EC50", "setting": "cyno GPRC5D [1]", "result": 2.82, "unit": "nM"}, {"measurement": "binding result", "setting": "human GPRC5D [2]", "result": "binds"}]}, {"binder": "GCDB44 (bispecific antibody, IgG4, V domains shown, IgG4-PAA bispecific; also called GC5B320 x CD3B219) VH 1: not shown VL 1: EIVLTQSPATLSLSPGERATLSCRASQSVSSYLAWYQQKPGQAPRLLIYDASNRATGIPARFSGSGSGTDFTLTISSLEPEDFAVYYCQQRSNWPLTFGQGTKVEIK VH 2: EVQLVESGGGLVQPGGSLRLSCAASGFTFNTYAMNWVRQAPGKGLEWVARIRSKYNNYATYYAASVKGRFTISRDDSKNSLYLQMNSLKTEDTAVYYCARHGNFGNSYVSWFAYWGQGTLVTVSS VL 2: QTVVTQEPSLTVSPGGTVTLTCRSSTGAVTTSNYANWVQQKPGQAPRGLIGGTNKRAPGTPARFSGSLLGGKAALTLSGVQPEDEAEYYCALWYSNLWVFGGGTKLTVL", "values": [{"measurement": "binding result", "setting": "human GPRC5D [3]", "result": "binds"}]}, {"binder": "GC5B602 (antibody, IgG1, V domains shown, IgG1 form of GC5B515) VH: QVQLVQSGAEVKKPGASVKVSCKASGYSFTGYTMNWVRQAPGQGLEWMGLINPYNGDTNYAQKLQGRVTMTTDTSTSTAYMELRSLRSDDTAVYYCARVALRVALDYWGQGTLVTVSS VL: DIQMTQSPSSLSASVGDRVTITCKASQNVATHVGWYQQKPGKAPKRLIYSASYRYSGVPSRFSGSGSGTEFTLTISNLQPEDFATYYCQQYNRYPYTFGQGTKLEIK", "values": [{"measurement": "EC50", "setting": "human GPRC5D [4]", "result": 135, "unit": "nM"}]}, {"binder": "GCDB32 (bispecific antibody, human IgG4 S228P, lambda, F234A L235A, IgG4-PAA by Fab arm exchange; also called GC5B81 x CD3B219; copies: 1 + 1 + 1 + 1) heavy 1: not shown VL: not shown heavy 2: EVQLVESGGGLVQPGGSLRLSCAASGFTFNTYAMNWVRQAPGKGLEWVARIRSKYNNYATYYAASVKGRFTISRDDSKNSLYLQMNSLKTEDTAVYYCARHGNFGNSYVSWFAYWGQGTLVTVSSASTKGPSVFPLAPCSRSTSESTAALGCLVKDYFPEPVTVSWNSGALTSGVHTFPAVLQSSGLYSLSSVVTVPSSSLGTKTYTCNVDHKPSNTKVDKRVESKYGPPCPPCPAPEAAGGPSVFLFPPKPKDTLMISRTPEVTCVVVDVSQEDPEVQFNWYVDGVEVHNAKTKPREEQFNSTYRVVSVLTVLHQDWLNGKEYKCKVSNKGLPSSIEKTISKAKGQPREPQVYTLPPSQEEMTKNQVSLTCLVKGFYPSDIAVEWESNGQPENNYKTTPPVLDSDGSFLLYSKLTVDKSRWQEGNVFSCSVMHEALHNHYTQKSLSLSLGK light: QTVVTQEPSLTVSPGGTVTLTCRSSTGAVTTSNYANWVQQKPGQAPRGLIGGTNKRAPGTPARFSGSLLGGKAALTLSGVQPEDEAEYYCALWYSNLWVFGGGTKLTVLGQPKAAPSVTLFPPSSEELQANKATLVCLISDFYPGAVTVAWKADSSPVKAGVETTTPSKQSNNKYAASSYLSLTPEQWKSHRSYSCQVTHEGSTVEKTVAPTECS", "values": [{"measurement": "T-cell redirection cytotoxicity EC50, cyno GPRC5D HEK cells", "setting": "cyno GPRC5D [5]", "result": 0.07, "unit": "nM"}, {"measurement": "T-cell redirection cytotoxicity EC50, human GPRC5D HEK cells", "setting": "human GPRC5D [6]", "result": 0.04, "unit": "nM"}, {"measurement": "EC50", "setting": "human GPRC5D [7]", "result": 70.4, "unit": "nM"}, {"measurement": "T cell mediated target cell killing, Cyno GPRC5D EC50", "setting": "cyno GPRC5D [1]", "result": 0.19, "unit": "nM"}, {"measurement": "EC50", "setting": "human GPRC5D [8]", "result": 16.1, "unit": "nM"}, {"measurement": "MFI", "setting": "murine GPRC5D", "result": 1150, "unit": "MFI"}]}]}
